The koff is a measure of how fast the partners let go of each other. Low values mean a long-lived complex, high ones a short-lived complex. As usually defined, the Kd is the equilibrium constant for the complex coming apart. By kon is commonly meant a measure of how fast the partners come together.

This is an account of results in patent publication US20090202526A1 (RINAT NEUROSCIENCE, published 2009).

The target in test [1] is T1, Human trkC (KIRA assay) (human, UniProt Q16288 32-839, limits assumed). As to the kind of experiment: cell-based or functional assay.
The target of test [2] is Rat trkC on trigeminal neurons (rat, UniProt Q03351 32-864). The test is described as follows: cell-based or functional assay.
The target of the next test is T2, Rat trkA (rat, UniProt P35739 33-418, limits assumed).
T2 construct: BIAcore essentially as for trkC; construct not described
As to the kind of experiment: BIAcore SPR. A general note: SPR reads the build-up and loss of mass on a sensor chip optically.

The target in another test is T3, Rat trkB (rat, UniProt Q63604 32-429, limits assumed).
T3 construct: BIAcore essentially as for trkC; construct not described
As to the kind of experiment: BIAcore SPR.

The next test deals with T4, Human trkB (human, UniProt Q16620 32-430, limits assumed).
T4 construct: BIAcore essentially as for trkC; construct not described
The test is described as follows: BIAcore SPR.

The target of the next test is T5, Human trkA (human, UniProt P04629 33-423, limits assumed).
T5 construct: BIAcore essentially as for trkC; construct not described
As to the kind of experiment: BIAcore SPR.

Test [3] addresses T6, Rat trkC-Fc fusion protein (rat, UniProt Q03351 32-429).
T6 construct: Immobilised on CM5 chip for BIAcore; not shown: Fc part not described
The test is described as follows: BIAcore SPR, Fab over immobilised rat trkC-Fc. The protocol:
(§1) Affinities of anti-trkC Fabs and monoclonal antibodies were determined using the BIAcore 3000™ surface plasmon resonance (SPR) system (BIAcore, INC, Piscaway N.J.). CM5 chips were activated with N-ethyl-N′-(3-dimethylaminopropyl)-carbodiimide hydrochloride (EDC) and N-hydroxysuccinimide (NHS) according to the supplier's instructions. Human or rat trkC-Fc fusion protein was diluted into 10 mM sodium acetate pH 5.0 and injected over the activated chip at a concentration of 0.005 mg/mL. Using variable flow time across the individual chip channels, two ranges of antigen density were achieved: 200-400 response units (RU) for detailed kinetic studies and 500-1000 RU for screening assays. The chip was blocked with ethanolamine. […] HBS-EP buffer (0.01M HEPES, pH 7.4, 0.15 NaCl, 3 mM EDTA, 0.005% Surfactant P20) was used as running buffer for all the BIAcore assays. […] The concentrations of the Fab proteins are determined by ELISA and/or SDS-PAGE electrophoresis using a Fab of known concentration (as determined by amino acid analysis) as a standard. Kinetic association rates (kₒₙ) and dissociation rates (koff) are obtained simultaneously by fitting the data to a 1:1 Langmuir binding model (Karlsson, R. Roos, H. Fagerstam, L. Petersson, B. (1994). Methods Enzymology 6. 99-110) using the BlAevaluation program. Equilibrium dissociation constant (KD) values are calculated as koff/kₒₙ.

Test [4] concerns the target T7, Human trkC-Fc fusion protein (human, UniProt Q16288 32-429).
T7 construct: Immobilised on CM5 chip for BIAcore; also called htrkC; not shown: Fc part not described
The test is described as follows: BIAcore SPR, Fab over immobilised human trkC-Fc. On the procedure: as §1
(§2) We prepared antibody clones bearing the CDR and/or framework region substitution mutations shown in Table 1 and determine KD and other kinetic parameters using BIAcore analysis as described herein.

Test [5] has as its target T7, Human trkC-Fc fusion protein. As to the kind of experiment: BIAcore SPR, human trkC-Fc on chip; KD calculated from koff with 2256 kon 5E5 1/Ms.
Test [6] shares this target. As to the kind of experiment: BIAcore SPR, Fab on human trkC. On the procedure: as §1, §2
Test [7] shares this target. The test is described as follows: BIAcore SPR.
Test [8] concerns the target T1, Human trkC (KIRA assay). The test is described as follows: cell-based or functional assay. The source holds these as a separate data set.
Test [9] addresses T7, Human trkC-Fc fusion protein. As to the kind of experiment: BIAcore SPR; value used in the footnote to calculate KD of the mutants.

Substitutions are numbered along the chain they refer to. Several values for one entry are separate records, joined by “and”; a condition that tells them apart may be missing. Identical values can stand only once.

T1 sequence (Q16288 32-839 limits assumed): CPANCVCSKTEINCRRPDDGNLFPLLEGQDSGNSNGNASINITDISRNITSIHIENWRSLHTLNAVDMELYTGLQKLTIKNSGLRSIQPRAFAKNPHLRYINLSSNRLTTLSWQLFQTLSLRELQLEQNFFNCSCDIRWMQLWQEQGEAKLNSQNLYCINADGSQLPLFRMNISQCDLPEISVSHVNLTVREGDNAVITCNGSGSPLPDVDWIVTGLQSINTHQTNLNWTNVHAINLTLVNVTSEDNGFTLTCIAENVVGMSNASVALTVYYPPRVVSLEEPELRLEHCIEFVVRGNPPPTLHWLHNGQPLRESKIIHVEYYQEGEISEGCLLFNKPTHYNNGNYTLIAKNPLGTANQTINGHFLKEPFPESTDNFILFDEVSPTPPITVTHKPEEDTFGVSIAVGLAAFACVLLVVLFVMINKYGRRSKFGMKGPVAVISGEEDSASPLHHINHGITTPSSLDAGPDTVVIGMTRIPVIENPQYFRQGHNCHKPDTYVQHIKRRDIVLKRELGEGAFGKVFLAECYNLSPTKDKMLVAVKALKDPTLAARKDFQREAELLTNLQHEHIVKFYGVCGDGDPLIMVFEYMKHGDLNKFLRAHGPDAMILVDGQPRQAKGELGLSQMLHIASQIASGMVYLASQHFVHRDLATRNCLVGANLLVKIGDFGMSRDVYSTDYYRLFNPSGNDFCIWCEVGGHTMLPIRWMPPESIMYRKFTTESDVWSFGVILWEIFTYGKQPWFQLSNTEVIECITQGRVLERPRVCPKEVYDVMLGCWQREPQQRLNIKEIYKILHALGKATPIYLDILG
Chain of Rat trkC on trigeminal neurons (Q03351 32-864): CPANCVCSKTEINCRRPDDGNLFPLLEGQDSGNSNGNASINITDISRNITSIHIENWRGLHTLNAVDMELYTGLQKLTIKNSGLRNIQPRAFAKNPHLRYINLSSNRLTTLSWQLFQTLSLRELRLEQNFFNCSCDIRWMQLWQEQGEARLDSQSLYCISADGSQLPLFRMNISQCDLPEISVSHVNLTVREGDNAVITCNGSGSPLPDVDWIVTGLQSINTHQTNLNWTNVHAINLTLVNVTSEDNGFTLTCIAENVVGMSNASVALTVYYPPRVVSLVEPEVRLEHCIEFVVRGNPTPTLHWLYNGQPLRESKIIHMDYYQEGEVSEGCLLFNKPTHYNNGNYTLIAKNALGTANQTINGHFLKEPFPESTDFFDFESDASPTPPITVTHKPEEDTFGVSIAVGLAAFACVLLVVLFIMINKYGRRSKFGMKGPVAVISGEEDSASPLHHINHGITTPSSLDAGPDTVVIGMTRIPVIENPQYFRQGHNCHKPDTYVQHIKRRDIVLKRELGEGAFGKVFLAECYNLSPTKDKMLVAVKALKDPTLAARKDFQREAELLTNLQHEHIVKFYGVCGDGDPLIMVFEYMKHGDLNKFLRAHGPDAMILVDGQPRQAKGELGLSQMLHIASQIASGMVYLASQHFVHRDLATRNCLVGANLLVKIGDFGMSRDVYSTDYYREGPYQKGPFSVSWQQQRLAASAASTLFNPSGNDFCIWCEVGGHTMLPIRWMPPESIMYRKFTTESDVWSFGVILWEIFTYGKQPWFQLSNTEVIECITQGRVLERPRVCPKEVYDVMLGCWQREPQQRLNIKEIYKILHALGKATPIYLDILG
T3 sequence (Q63604 32-429 limits assumed): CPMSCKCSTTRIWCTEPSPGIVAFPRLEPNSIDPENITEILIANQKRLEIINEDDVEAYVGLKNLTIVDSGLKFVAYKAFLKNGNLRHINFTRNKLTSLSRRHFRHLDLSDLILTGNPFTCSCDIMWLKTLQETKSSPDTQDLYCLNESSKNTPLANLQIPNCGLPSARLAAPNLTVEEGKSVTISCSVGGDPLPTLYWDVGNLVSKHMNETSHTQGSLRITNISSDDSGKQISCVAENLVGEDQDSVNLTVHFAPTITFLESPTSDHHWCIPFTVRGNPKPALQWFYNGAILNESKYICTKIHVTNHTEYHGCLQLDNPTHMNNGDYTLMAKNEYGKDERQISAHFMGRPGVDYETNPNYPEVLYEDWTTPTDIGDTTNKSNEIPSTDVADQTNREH
T2 sequence (P35739 33-418 limits assumed): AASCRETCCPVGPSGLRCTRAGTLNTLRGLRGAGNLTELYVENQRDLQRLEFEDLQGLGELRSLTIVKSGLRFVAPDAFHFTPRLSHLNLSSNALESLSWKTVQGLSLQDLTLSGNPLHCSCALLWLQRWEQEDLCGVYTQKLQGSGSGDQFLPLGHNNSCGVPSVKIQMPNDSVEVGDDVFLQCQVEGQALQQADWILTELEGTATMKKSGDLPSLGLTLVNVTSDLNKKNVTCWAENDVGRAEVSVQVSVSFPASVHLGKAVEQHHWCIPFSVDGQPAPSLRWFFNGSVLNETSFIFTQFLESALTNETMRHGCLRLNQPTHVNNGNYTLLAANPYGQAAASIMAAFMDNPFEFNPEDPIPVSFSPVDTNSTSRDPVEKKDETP
T4 sequence (Q16620 32-430 limits assumed): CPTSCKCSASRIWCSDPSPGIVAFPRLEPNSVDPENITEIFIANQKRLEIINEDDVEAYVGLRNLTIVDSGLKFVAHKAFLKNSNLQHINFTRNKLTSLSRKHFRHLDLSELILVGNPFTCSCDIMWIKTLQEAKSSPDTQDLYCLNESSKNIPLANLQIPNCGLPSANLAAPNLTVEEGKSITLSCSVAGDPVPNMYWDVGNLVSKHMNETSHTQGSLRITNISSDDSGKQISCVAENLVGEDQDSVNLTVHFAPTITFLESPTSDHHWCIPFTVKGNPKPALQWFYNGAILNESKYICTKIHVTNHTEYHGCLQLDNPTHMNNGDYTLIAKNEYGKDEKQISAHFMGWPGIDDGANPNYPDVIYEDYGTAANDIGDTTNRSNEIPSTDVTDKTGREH
T5 sequence (P04629 33-423 limits assumed): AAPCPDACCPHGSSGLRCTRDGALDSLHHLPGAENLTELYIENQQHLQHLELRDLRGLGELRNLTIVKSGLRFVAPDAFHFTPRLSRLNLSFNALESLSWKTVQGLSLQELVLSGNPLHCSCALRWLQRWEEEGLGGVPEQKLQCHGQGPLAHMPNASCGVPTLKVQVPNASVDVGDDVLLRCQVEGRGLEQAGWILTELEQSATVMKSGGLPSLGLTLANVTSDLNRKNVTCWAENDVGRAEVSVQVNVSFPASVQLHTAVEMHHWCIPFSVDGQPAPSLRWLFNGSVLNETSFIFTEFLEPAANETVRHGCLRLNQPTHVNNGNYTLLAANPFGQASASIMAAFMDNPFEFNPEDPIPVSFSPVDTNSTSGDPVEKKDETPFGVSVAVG

B1: Antibody A5, full IgG (antibody, V domains shown)
VH: QVQLVQSGAEVKKPGASVKVSCKASGYTFTSYRIHWVRQAPGQGLEWMGEIYPSNARTNYNEKFKSRVTMTRDTSTSTVYMELSSLRSEDTAVYYCARKYYYGNTRRSWYFDVWGQGTTVTVSS
VL: DIQMTQSPSSLSASVGDRVTITCRASESIDNYGISFLAWYQQKPGKAPKLLIYAASNRGSGVPSRFSGSGSGTDFTFTISSLQPEDIATYYCQQSKTVPRTFGQGTKLEIKR
On to B1, for which the “EC50 (read off the curve), KIRA” value in the test with Human trkC (KIRA assay) [1] was roughly 0.1 nM. Further, the “EC50, neuron survival” value in test [2] came out at 0.001 nM. Further, the binding result in the test with Rat trkA, with Rat trkB, with Human trkB and with Human trkA was “no binding” in each case.

B2: Fab clone 129(T8)(H8xE10)(10B) (Fab, V domains shown)
VH: QVQLVQSGAEVKKPGASVKVSCKASGYTFTSYRIHWVRQAPGQGLEWMGEIYPSNSRTNYNEKFKSRVTMTRDTSTSTVYMELSSLRSEDTAVYYCARKYYYGNSRRSWYFDVWGQGTTVTVS
VL: B1 VL
Turning to B2, the figures for the koff in test [3] and in [4] were 0.01 s⁻¹ and 0.0008 s⁻¹, respectively. For the same molecule, the Kd in test [5] was 1.6 nM.

B3: Fab clone 129(T8)(H8xE10)(10B)(E2) (Fab, V domains shown)
VH: B2 VH with S56G, S105T
VL: B1 VL
In test [3], B3 showed a Kd of 6 nM, a koff of 0.0094 s⁻¹ and a kon of 1.5e+06 M⁻¹ s⁻¹. In test [4], this molecule returned a Kd of 0.25 nM, a koff of 0.00036 s⁻¹ and a kon of 1.4e+06 M⁻¹ s⁻¹.

B4: Fab A5, clone 129(T8)(H8xE10)(10B)(A5) (Fab, V domains shown)
VH: B2 VH with S56A, S105T
VL: B1 VL
notes: purified on Ni-NTA; also called A5 (Fab)
For the molecule B4, in [3], the Kd amounted to 19 nM, the koff stood at 0.0267 s⁻¹ and the kon was 1.3e+06 M⁻¹ s⁻¹. Further, in [6], the affinity, expressed as Kd, was 0.28 nM and the koff is 0.00037 s⁻¹. Also, in [4], binding was characterised by a dissociation constant (Kd) of 0.28 nM, the koff stood at 0.00037 s⁻¹ and the kon is 1.3e+06 M⁻¹ s⁻¹. Also, the “fold improvement of affinity over parent antibody 2256” value in test [7] came to 200 fold.

B5: Fab clone 129(T8)(H8xE10)(4B) (Fab, V domains shown)
VH: B2 VH with R72G
VL: B1 VL
As for B5, the koff in [3] was 0.0289 s⁻¹ and 0.0627 s⁻¹; in test [4] it was 0.002 s⁻¹. For the same molecule, the Kd in test [5] is 4 nM.

B6: Fab clone 129(T8)(H8xE10) (Fab, V domains shown)
VH: B2 VH with V68A, R72G, T74K
VL: B1 VL
For B6, the koff is 0.09 s⁻¹ in test [3] and 0.001 s⁻¹ in test [4]. Besides, in test [5], the Kd was 2 nM.

B7: Mouse monoclonal agonist anti-trkC antibody 2256 (antibody, V domains shown)
VH: QVQLQQPGAELVKPGASVKLSCKASGYTFTSYWMHWVKQRPGQGLEWIGEIYPSNGRTNYNEKFKSKATLTVDKSSSTAYMQLSSLTSEDSAVYYCARKYYYGNSYRSWYFDVWGAGTTLTVS
VL: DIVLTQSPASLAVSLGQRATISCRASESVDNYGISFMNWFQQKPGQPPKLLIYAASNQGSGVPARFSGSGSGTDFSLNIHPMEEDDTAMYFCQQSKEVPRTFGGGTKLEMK
notes: Mouse monoclonal antibody
As to B7, the “EC50, KIRA assay” value in the test with Human trkC (KIRA assay) [8] is roughly 40 nM. In [2], the “EC50, rat trigeminal neuron survival assay” value was roughly 5 nM. The molecule also came in with a Kd in test [7] of roughly 62 nM.

B8: Fab 2256 (parent) (Fab, V domains shown)
VH: B7 VH
VL: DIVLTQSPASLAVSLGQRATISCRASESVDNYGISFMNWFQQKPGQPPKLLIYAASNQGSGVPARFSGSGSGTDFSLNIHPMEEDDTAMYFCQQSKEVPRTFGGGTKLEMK
For B8, the kon in test [9] is 500000 M⁻¹ s⁻¹. Further, in [6], the affinity, expressed as Kd, was 40 nM and the koff came to 0.02 s⁻¹.
